Test results from patent US20150258192A1, “COMPOSITIONS AND METHODS FOR PREVENTING OR TREATING CHRONIC LUNG ALLOGRAFT DYSFUNCTION (CLAD) AND IDIOPATHIC PULMONARY FIBROSIS (IPF)” (priority 2014, published 2015).
No end group written: not given here.

Key:
Assay in all cases: Kinase Profiling Assay
Type in all cases: biochemical
Conditions in all cases: peptide 100 μM
CHK2(R145W)(h) = CHK2(R145W)(h) (Homo sapiens, UniProt O96017, R145W)
Outline: (§1)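 Kinase inhibition by MK2 inhibitory peptides was profiled radiometrically, with substrate phosphorylation from labeled ATP read by scintillation after capture on a charged filter. Values are relative to 100% activity and measured in duplicate.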

EphA7(h) = EphA7(h) (Homo sapiens, UniProt Q15375)
EphA7(h), sequence (Q15375 28-998): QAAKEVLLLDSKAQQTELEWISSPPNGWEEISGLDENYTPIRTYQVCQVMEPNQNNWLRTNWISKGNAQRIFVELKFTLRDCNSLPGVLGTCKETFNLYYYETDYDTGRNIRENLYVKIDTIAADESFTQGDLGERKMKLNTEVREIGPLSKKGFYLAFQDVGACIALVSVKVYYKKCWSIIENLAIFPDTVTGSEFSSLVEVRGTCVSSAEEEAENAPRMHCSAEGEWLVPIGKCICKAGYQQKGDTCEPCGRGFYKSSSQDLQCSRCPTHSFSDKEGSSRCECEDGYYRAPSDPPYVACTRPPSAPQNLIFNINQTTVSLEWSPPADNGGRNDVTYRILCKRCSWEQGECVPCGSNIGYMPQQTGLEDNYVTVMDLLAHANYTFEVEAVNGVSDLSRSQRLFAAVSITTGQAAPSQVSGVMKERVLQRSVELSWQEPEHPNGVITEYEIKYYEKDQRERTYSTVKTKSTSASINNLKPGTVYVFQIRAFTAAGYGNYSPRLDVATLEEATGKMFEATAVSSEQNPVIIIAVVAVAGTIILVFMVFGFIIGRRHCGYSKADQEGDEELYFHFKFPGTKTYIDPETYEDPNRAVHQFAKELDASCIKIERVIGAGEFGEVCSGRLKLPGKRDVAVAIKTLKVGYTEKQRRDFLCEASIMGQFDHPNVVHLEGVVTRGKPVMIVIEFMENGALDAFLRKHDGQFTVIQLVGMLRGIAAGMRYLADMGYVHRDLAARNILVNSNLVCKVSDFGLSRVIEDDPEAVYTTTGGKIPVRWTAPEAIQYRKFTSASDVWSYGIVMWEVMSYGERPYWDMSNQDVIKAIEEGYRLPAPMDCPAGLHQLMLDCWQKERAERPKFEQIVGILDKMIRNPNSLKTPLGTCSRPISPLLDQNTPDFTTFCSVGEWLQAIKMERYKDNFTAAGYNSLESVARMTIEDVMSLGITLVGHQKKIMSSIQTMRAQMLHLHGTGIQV
Outline: as §1

EphA8(h) = target: T1, EphA8(h) (Homo sapiens, UniProt P29322)
T1 sequence (P29322 28-1005): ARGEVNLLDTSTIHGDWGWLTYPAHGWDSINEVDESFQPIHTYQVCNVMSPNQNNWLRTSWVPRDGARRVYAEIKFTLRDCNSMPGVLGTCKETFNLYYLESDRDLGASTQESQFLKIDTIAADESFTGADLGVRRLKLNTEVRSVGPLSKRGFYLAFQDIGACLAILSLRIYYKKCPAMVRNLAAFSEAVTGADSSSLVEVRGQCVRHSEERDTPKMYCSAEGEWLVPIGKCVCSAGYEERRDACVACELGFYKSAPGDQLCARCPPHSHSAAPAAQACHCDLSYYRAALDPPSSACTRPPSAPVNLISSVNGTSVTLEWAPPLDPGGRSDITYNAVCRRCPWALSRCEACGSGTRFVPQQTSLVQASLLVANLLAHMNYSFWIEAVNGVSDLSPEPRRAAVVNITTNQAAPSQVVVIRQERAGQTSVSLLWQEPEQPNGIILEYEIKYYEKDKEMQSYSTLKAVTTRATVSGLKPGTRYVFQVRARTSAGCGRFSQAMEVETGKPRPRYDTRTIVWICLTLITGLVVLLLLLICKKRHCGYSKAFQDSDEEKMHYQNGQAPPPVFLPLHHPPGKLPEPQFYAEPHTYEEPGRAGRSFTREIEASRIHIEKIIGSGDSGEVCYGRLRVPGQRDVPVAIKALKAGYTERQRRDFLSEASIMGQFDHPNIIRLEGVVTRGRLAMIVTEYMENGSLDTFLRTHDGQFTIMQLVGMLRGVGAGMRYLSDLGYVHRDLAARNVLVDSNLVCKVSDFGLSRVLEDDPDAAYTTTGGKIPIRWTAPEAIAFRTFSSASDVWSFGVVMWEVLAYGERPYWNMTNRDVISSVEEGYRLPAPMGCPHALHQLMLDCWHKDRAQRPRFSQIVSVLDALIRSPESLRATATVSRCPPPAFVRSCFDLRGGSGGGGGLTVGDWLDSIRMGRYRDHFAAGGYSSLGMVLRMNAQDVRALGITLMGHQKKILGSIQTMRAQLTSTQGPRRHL
Outline: as §1

LKB1(h) = target: T2, LKB1(h) (Homo sapiens, UniProt Q15831)
T2 construct: purchased Millipore
T2 sequence (Q15831 1-433): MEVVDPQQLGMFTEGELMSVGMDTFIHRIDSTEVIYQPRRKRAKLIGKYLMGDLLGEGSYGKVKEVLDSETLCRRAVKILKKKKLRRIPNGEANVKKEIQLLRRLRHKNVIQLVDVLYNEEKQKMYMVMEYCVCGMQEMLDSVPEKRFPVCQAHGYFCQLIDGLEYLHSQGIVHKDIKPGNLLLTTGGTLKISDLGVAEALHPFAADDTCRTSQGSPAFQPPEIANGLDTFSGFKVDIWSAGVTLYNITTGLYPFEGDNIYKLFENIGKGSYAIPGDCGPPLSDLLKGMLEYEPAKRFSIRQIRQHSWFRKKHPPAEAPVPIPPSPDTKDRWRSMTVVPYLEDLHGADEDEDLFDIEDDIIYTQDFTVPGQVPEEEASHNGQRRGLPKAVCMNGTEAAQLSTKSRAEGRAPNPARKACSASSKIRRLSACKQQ
T2 sequence (Q7RTN6 1-431 partner): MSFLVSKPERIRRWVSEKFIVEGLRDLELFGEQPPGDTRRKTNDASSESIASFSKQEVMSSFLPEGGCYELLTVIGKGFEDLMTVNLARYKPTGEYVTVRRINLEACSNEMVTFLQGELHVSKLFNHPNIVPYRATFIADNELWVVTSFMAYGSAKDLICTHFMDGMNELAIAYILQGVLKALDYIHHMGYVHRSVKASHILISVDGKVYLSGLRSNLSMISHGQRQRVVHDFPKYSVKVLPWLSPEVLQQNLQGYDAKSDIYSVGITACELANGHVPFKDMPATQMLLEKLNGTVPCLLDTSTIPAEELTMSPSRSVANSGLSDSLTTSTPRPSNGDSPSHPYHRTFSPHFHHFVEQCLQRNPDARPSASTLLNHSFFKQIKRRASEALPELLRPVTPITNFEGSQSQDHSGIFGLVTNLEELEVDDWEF
T2 sequence (Q9Y376 1-341 partner): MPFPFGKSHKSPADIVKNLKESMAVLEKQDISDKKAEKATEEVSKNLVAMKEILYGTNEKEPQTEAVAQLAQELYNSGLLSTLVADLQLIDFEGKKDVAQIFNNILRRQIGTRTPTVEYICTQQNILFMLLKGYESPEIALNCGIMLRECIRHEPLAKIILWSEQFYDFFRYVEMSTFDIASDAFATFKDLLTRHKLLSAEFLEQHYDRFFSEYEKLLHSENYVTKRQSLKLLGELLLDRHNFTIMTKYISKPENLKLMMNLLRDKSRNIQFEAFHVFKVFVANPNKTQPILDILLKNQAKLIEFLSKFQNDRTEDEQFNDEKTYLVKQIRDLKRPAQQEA
Outline: as §1

PASK(h) = PASK(h) (Homo sapiens, UniProt Q96RG2)
PASK(h), sequence (Q96RG2 whole entry): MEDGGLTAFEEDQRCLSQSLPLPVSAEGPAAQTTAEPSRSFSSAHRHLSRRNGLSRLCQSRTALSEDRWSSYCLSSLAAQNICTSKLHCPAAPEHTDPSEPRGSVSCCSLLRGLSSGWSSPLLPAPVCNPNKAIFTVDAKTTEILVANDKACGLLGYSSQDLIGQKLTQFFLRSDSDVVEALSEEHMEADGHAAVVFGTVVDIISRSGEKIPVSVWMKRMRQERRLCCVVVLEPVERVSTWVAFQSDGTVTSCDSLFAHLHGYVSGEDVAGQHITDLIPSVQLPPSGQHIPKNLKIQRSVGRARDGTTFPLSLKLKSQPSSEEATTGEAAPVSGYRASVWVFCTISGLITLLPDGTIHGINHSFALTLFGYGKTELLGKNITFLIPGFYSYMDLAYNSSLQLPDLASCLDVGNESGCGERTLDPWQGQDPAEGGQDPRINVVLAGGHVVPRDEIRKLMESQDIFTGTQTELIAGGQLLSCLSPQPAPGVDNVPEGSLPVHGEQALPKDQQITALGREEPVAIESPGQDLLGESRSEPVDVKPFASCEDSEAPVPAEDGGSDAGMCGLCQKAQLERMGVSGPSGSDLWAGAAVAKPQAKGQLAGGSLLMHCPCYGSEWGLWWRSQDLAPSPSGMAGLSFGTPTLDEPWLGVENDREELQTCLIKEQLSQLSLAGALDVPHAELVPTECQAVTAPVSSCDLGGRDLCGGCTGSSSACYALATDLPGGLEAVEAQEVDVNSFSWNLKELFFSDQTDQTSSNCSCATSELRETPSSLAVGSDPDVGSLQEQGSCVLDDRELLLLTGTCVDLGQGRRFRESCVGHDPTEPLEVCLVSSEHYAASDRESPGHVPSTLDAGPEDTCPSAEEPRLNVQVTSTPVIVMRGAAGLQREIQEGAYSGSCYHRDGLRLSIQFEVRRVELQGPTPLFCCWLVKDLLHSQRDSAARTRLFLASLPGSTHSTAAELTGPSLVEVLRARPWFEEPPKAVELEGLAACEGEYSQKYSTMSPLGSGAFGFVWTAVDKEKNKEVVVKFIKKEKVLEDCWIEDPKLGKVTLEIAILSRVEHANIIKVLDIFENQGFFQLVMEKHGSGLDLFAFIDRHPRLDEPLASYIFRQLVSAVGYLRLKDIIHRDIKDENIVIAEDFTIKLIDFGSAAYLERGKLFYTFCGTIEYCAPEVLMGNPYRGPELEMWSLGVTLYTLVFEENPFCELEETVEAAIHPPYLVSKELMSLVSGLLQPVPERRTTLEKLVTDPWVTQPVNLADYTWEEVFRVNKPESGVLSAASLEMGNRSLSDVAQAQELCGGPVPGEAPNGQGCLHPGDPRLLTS
Outline: as §1

CHK2(R145W)(h), sequence (O96017 whole entry R145W): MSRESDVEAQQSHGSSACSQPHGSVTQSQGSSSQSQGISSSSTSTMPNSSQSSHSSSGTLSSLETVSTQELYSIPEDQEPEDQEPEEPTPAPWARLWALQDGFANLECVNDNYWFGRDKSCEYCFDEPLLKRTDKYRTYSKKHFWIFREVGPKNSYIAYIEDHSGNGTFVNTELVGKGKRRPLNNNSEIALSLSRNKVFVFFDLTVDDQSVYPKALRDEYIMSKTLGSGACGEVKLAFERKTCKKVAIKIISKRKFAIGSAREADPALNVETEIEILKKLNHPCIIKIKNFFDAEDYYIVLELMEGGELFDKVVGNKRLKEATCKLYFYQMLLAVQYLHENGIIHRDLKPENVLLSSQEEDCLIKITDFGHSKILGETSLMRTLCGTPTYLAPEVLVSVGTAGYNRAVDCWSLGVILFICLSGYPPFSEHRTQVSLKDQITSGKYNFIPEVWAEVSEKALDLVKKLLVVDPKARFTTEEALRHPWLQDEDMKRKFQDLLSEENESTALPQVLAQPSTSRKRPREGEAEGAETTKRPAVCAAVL

## FAKLAARLYRKALARQLGVAA [MMI-0300]
CHK2(R145W)(h)
  % activity: 33%
EphA7(h)
  % activity: 159%
EphA8(h)
  % activity: 93%
LKB1(h)
  % activity: 101%
PASK(h)
  % activity: 29%

## HRRIKAWLKKIKALARQLGVAA (Mammal) [MMI-0500]
CHK2(R145W)(h)
  % activity: 3%
EphA7(h)
  % activity: 189%
EphA8(h)
  % activity: 337%
LKB1(h)
  % activity: 51%
PASK(h)
  % activity: 9%

## KAFAKLAARLYRKALARQLGVAA [MMI-0400]
CHK2(R145W)(h)
  % activity: 31%
EphA7(h)
  % activity: 222%
EphA8(h)
  % activity: 146%
LKB1(h)
  % activity: 89%
PASK(h)
  % activity: 28%

## YARAAARQARAKALARQLGVAA [MMI-0100]
CHK2(R145W)(h)
  % activity: 97%
EphA7(h)
  % activity: 193%
EphA8(h)
  % activity: 181%
PASK(h)
  % activity: 81%

## YARAAARQARAKALNRQLGVA (Mammal) [MMI-0200]
CHK2(R145W)(h)
  % activity: 81%
EphA7(h)
  % activity: 220%
EphA8(h)
  % activity: 133%
LKB1(h)
  % activity: 99%
PASK(h)
  % activity: 60%
